Consider one substance from article PMC6747193.

The assay concerns the target C1QBP Recombinant Human Protein (gC1q-R) (human) (UniProt Q07021). Description: ELISA; solid-phase microplate competition: gC1q-R coated on wells; polyclonal antibodies against gC1q-R amino acids 76-104 or 221-249 added at 4 µg/mL 1 h before idInlB at 0.4 µg/mL; idInlB without antibodies as positive control; bound idInlB detected with anti-His polyclonal antibody. A general note: In an ELISA, binding on a coated surface is turned into a signal by an enzyme label.
Sequence of UniProt Q07021 (Q07021 74-282): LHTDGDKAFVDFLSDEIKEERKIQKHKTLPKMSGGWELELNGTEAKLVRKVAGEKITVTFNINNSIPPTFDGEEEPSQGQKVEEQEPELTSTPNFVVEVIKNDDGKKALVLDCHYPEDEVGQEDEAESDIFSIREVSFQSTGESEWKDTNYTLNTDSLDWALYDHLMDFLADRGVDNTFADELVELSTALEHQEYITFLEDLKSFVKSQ

As to “InlB internalin domain isoform idInlB9 (lineage I, from L. monocytogenes strain VIMHA015) (from UniProt P0DQD2 36-321) (domain or fragment)”, the fold decrease of binding with the antibody against gC1q-R amino acids 76-104, against idInlB9 without antibody is 1.6 fold and the fold decrease of binding with the antibody against gC1q-R amino acids 221-249, against idInlB9 without antibody is 1.25 fold.
